Two molecules from article PMC6271940 can be followed below.

The test has as its target T1, angiotensin I-converting enzyme (UniProt P12822).
T1 sequence: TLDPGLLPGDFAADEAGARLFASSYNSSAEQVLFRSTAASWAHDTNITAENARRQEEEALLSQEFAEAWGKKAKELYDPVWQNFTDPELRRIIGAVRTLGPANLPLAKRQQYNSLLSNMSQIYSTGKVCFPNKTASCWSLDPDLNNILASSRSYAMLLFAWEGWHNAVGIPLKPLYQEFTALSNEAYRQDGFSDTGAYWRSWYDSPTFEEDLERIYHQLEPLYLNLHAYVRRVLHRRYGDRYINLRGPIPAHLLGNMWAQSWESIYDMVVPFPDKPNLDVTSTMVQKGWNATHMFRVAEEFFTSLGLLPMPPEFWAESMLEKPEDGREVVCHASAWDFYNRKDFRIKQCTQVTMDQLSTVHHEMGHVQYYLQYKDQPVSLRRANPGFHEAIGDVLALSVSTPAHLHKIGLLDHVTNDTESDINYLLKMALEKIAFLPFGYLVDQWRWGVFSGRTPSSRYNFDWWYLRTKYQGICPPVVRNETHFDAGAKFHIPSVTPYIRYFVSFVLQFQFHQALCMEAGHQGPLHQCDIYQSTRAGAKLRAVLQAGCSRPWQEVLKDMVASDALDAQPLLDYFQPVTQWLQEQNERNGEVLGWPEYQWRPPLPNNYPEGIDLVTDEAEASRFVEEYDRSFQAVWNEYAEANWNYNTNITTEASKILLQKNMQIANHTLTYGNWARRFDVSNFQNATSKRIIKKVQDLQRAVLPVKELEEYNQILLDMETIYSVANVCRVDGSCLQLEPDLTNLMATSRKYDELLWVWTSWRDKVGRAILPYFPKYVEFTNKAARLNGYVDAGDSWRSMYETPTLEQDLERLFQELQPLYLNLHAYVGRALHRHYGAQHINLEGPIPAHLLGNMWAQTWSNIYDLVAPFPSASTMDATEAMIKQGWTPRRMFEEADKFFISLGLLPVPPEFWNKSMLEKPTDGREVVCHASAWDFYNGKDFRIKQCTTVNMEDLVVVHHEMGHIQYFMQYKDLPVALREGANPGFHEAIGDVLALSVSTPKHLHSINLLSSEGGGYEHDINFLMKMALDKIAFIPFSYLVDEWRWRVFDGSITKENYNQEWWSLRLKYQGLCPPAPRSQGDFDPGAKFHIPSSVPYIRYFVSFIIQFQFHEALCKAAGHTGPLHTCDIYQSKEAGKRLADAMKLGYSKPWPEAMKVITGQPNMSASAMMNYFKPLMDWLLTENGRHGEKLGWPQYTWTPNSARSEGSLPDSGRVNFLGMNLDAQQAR

In the case of VKP (peptide), the ACE inhibitory activity (release of hippuric acid from HHL, HPLC at 228 nm; 50 mM borate, 0.3 M NaCl, pH 8.3, 37 °C, 60 min), IC50 amounted to 1.3 μM.

B1: VKCFR (peptide)
peptide: VKCFR
B1 came in with an ACE inhibitory activity (release of hippuric acid from HHL, HPLC at 228 nm; 50 mM borate, 0.3 M NaCl, pH 8.3, 37 °C, 60 min), IC50 of 34.5 μM.
